B1: CCND1 (parent)
chain: PEAEENKQIIRKHAQTFVALCATD
B2: WDFY2 (parent)
chain: FWNFKQMWDSKKIGLRQHHCRKCG

Variants of: B1
Experiment: protein stability index of a GFP-peptide fusion (GPS, HEK-293T) (PSI 1-6); higher = more stable
Conditions: c terminus: a fixed tail appended
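Further: lentivirally expressed fusions sorted by FACS into six bins by GFP to DsRed ratio, PSI derived from sequencing read proportions per bin multiplied by bin number.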

Protein stability index of substitutions, site by site:
V18: T 3.96 | C 3.72 | D 5.34 | W 3.76 | R 3.87 | I 4.42 | H 4.7 | S 4.49 | A 3.77 | Q 4.29 | E 5.09 | Y 3.75 | G 4.55 | P 5.04 | L 4.49 | N 4.61 | F 4.28 | K 5.09 | M 4.35
T16: D 4.81 | K 4.7 | R 4.25 | F 3.37 | S 3.2 | L 3.51 | N 4.61 | Q 4.13 | W 2.85 | V 3.85 | M 3.86 | G 3.88 | Y 3.58 | C 3.55 | H 4.35 | I 3.35 | P 4.62 | E 5.27 | A 4.71
L20: S 4.43 | T 4.04 | I 3.33 | H 3.21 | C 3.82 | V 2.87 | F 4.21 | A 3.3 | Y 2.66 | R 2.09 | W 4.15 | N 3.84 | M 2.11 | D 4.62 | P 4.79 | K 2.59 | G 4.71 | E 4.8 | Q 2.85
D24: S 3.9 | C 2.71 | Y 2.89 | M 2.93 | H 2.77 | L 2.79 | K 3.84 | T 3.35 | G 2.85 | R 2.7 | V 2.54 | A 3.27 | P 3.63 | W 2.39 | N 3.88 | Q 3.8 | I 2.15 | F 2.23 | E 2.33
T23: Q 2.54 | Y 2.47 | N 2.94 | W 2.63 | E 2.21 | S 2.48 | C 2.64 | A 2.87 | F 1.75 | R 2.48 | K 2.92 | M 2.94 | P 3.07 | V 2.87 | L 2.35 | H 2.64 | G 2.64 | D 3.22 | I 2.38
A19: D 2.6 | V 4.04 | E 2.49 | P 4.92 | R 3.96 | L 2.59 | M 2.55 | G 2.91 | S 2.89 | I 2.85 | C 3.3 | W 3.06 | T 4.06 | Q 2.5 | Y 3.64 | H 3.32 | F 3.08 | N 2.92 | K 3.54
A22: W 2.09 | I 2.95 | E 2.96 | Q 2.91 | N 4.43 | C 2.15 | D 3.87 | Y 3.02 | K 3.66 | H 3.38 | M 2.67 | P 4.49 | V 2.52 | G 3.37 | R 3.16 | S 3.19 | F 2.63 | L 2.72 | T 2.87
C21: M 3.28 | P 4.7 | N 5.27 | I 1.98 | D 5.22 | V 2.24 | L 1.66 | T 2.78 | R 4.86 | S 4.07 | W 3.59 | K 5.07 | G 5.04 | H 4.37 | A 4.05 | E 4.9 | Q 4.95 | Y 2.96 | F 3.75
Q15: R 2.32 | H 2.97 | T 3.18 | D 3.66 | Y 2.01 | V 2.84 | E 3.63 | I 2.33 | W 2.16 | F 2.07 | M 2.59 | L 2.49 | N 3.41 | S 3.52 | P 3.48 | G 3.11 | K 2.04
F17: L 4.47 | E 5.24 | M 5.03 | C 4.84 | T 5.23 | Y 3.27 | H 4.86 | Q 4.99 | N 5.41 | P 5.15 | D 5.61 | A 4.99 | S 4.67 | G 5.43 | W 2.11 | K 5.34 | I 4.84 | V 4.33 | R 4.54

Variants of: B2
Experiment: as above
Conditions: c terminus: a fixed tail appended

Protein stability index: each site, then its substitutions
F4: T 2.3 | L 1.94 | Y 1.99 | E 2.39 | G 2.23 | R 2.33 | C 2.36 | P 1.93 | M 2.26 | K 1.46 | D 2.27 | Q 2.41 | V 2.33 | H 2.47 | S 2.12 | A 1.61 | I 1.51 | W 2.26 | N 2.29
F1: A 2.86 | R 2.01 | L 1.44 | W 2.25 | P 2.99 | E 3.02 | Q 2.11 | S 2 | Y 1.52 | M 1.52 | I 2.08 | K 2.11 | D 2.59 | V 2.86 | T 2.14 | C 2.65 | G 2.32 | N 2.32 | H 2.66
W8: I 1.8 | D 3 | M 3.04 | P 2.16 | L 2.59 | F 2.25 | E 3.3 | H 2.79 | G 2.48 | A 2.12 | K 2.69 | N 3.72 | C 2.34
M7: Y 2.34 | W 1.74 | V 1.71 | L 2 | C 2.09 | K 1.69 | S 2.57 | D 2.41 | T 2.11 | F 2.09 | N 1.62 | E 2.82 | P 2.06 | Q 2.21 | I 1.92 | A 2.19 | H 2.48 | R 2.33 | G 1.68
N3: L 1.42 | V 3.37 | F 2.05 | Y 1.91 | C 2.08 | P 1.85 | S 3.29 | A 1.22 | Q 2.1 | E 2.12 | K 1.7 | I 1.84 | G 2.28 | R 1.42 | W 1.65 | H 1.77 | D 2.05 | T 1.8 | M 1.35
W2: I 2.23 | K 2.04 | F 1.61 | V 3.04 | S 1.42 | M 2.39 | N 2.63 | Q 1.19 | E 3.29 | C 2.19 | T 2.12 | Y 2.25 | L 1.93 | H 2.32 | G 1.8 | R 2.61 | A 1.86 | D 2.78 | P 2.58
Q6: G 2.79 | A 1.56 | V 1.51 | L 2.03 | T 1.82 | R 1.79 | C 2.34 | M 1.93 | Y 1.6 | K 2.44 | H 2.27 | N 2.27 | S 1.85 | P 2.04 | F 1.53 | W 1.28 | E 1.89 | I 1.68 | D 1.91
K5: W 1.38 | G 1.5 | V 2.33 | I 1.7 | H 1.66 | Y 1.24 | Q 2.4 | F 1.38 | M 2.6 | L 1.83 | N 1.76 | D 1.96 | P 1.98 | A 1.81 | R 1.24 | S 1.52 | E 2.22 | T 1.5 | C 2.66

From the supplement of paper PMC10567573
